This note sets out measurements from doi:10.1101/2024.12.11.628028 (bioRxiv, 2024).

This data set concerns the molecule itself. The data set can be described thus: crystal structure.

B1: Nicotinamide phosphoribosyltransferase (NAMPT), human, with N terminal His-tag (enzyme)
chain: MNPAAEAEFNILLATDSYKVTHYKQYPPNTSKVYSYFECREKKTENSKLRKVKYEETVFYGLQYILNKYLKGKVVTKEKIQEAKDVYKEHFQDDVFNEKGWNYILEKYDGHLPIEIKAVPEGFVIPRGNVLFTVENTDPECYWLTNWIETILVQSWYPITVATNSREQKKILAKYLLETSGNLDGLEYKLHDFGYRGVSSQETAGIGASAHLVNFKGTDTVAGLALIKKYYGTKDPVPGYSVPAAEHSTITAWGKDHEKDAFEHIVTQFSSVPVSVVSDSYDIYNACEKIWGEDLRHLIVSRSTQAPLIIRPDSGNPLDTVLKVLEILGKKFPVTENSKGYKLLPPYLRVIQGDGVDINTLQEIVEGMKQKMWSIENIAFGSGGGLLQKLTRDLLNCSFKCSYVVTNGLGINVFKDPVADPNKRSKKGRLSLHRTPAGNFVTLEEGKGDLEEYGQDLLHTVFKNGKVTKSYSFDEIRKNAQLNIELEAAHH
In the case of B1, the binding result is reported as “binds”.
